One may read the stoichiometry N as a count of units in the complex or per binding partner.

“And” between values parts separate entries of the source, which are not always exact repeats. Equal values may be shown once.

Data on one protein can be found in paper PMC5225881, “Open and compressed conformations of Francisella tularensis ClpP” (Proteins, 2016).

The data set concerns the molecule itself. The experiment in a line: native gel or EMSA; purified sample applied to a native gel; conditions not given.

B1: Francisella tularensis caseinolytic protease catalytic subunit P (ClpP) (enzyme)
chain: not shown
notes: also called FtClpP; FtClpP:I; copies: 14
Take B1: the “stoichiometry N” value was 7 and 14.
